Source: US20240409960A1, “METHOD FOR CONTROLLING PROTEIN FUNCTION” (The University of Tokyo, priority 2021, published 2024)

Assays:
Type in all cases: cell-based, human
[1] = test system: StopFluc luciferase reporter gene in HEK293FT cells; test: luciferase-based HDR (Homology-directed repair) assay of Cas9 endonuclease activity
Description: For constructing a luciferase reporter for detecting Cas9 endonuclease activity, the sequence encoding firefly luciferase (Fluc) was amplified from pGL4.31 vector (Promega). The firefly luciferase with an in-flamed stop codon (StopFluc) was produced by an overlapping PCR extension method. The primer (5′-[…]-3′: SEQ ID No: 40) was used for PCR. The Stop-Fluc construct was inserted into the HindII-XhoI site of pcDNA 3.1/V 5-HisA having the CMV promoter. A luciferase donor vector was constructed by inserting the reverse firefly luciferase sequence into the XhoI and HindIII site of the bacterial expression pCold-I vector (Clontech), and was used as donor DNA.
HEK293T cells (American Type Culture Collection: ATCC) were cultured at 37° C. under 5% CO2 in Dulbecco's Modified Eagle Medium (DMEM: Thermo Fisher Scientific) supplemented with 10% fetal bovine serum (FBS: Thermo Fisher Scientific), 100 units/ml of penicillin and 100 μg/ml of streptomycin (Thermo Fisher Scientific) and 2 mM GlutaMAX (Thermo Fisher Scientific).
For luciferase assay, HEK 293 cells were plated at 25,000 cells per well on a 96-well flat clear-bottom microplate (Greiner Bio-One), and were then cultured for 24 hours at 37° C. in 5% CO2. The cells were transfected with cDNAs encoding destabilized Cas9 or an empty vector (negative control) along with the luciferase reporter (StopFluc), donor DNA (Fluc) and Cas9 encoding gRNA, using Lipofectamine 3000 (Thermo Fisher Scientific) at 37° C. The total amount of DNA was 50 ng per well. The transfection ratio of the destabilized Cas9, the luciferase reporter, the donor DNA, and the gRNA was set to be equal (1:1:1:1). […] Bioluminescence measurement was performed for 1 second per well at room temperature using a Centro XS^3 LB 960 plate-reading luminometer (Berthold Technologies).
Full-length Cas9 was used as a positive control. […] Bioluminescence measurement was performed for 1 second per well at room temperature using a Centro XS^3 LB 960 plate-reading luminometer (Berthold Technologies).

[2] = test system: FRT sites (Floxed (FRT)-STOP Fluc reporter) in HEK293 cells; test: luciferase assay of Flp-FRT DNA recombination in HEK293 cells; conditions: 5 ng plasmid, 24 or 48 hours
Procedure: (§1) For constructing the luciferase reporters detecting for the activities of Flp-FRT recombinase, VCre-Vlox recombinase and Dre-rox recombinase, the FRT site ([…]: SEQ ID No: 37), the Vlox site ([…]: SEQ ID No: 38), the rox site ([…]: SEQ ID No: 39), were inserted into HindIII and KpnI sites and ClaI and EcoRI sites in the pcDNA3.1 (+) vector of the luciferase reporter (of loxP-stop-loxP-Fluc).
(§2) For luciferase assay, HEK 293 cells were plated at 25,000 cells per well on a 96-well flat white microplate (Thermo Fisher Scientific), and were then cultured for 24 hours at 37° C. in 5% CO2. The cells were transfected with cDNAs encoding destabilized Cre along with the luciferase reporter (loxP-stop-loxP Fluc), using X-tremeGENE9 reagent (Merck Millipore) at 37° C. The total amount of DNA was 50 ng per well. Twenty-four hours after the transfection, TMP or DMSO was added into the cells, and the cells were further cultured for 24 hours or 48 hours. Just before the luciferase assay, the medium was replaced with Hanks' balanced salt solution (HBSS) (Thermo Fisher Scientific) containing 0.2 mM D-luciferin potassium salt. Bioluminescence measurement was performed for 1 second per well at room temperature using a Centro XS^3 LB 960 plate-reading luminometer (Berthold Technologies).

[3] = test system: Vlox sites (Floxed (Vlox)-STOP Fluc reporter) in HEK293 cells; test: luciferase assay of VCre-Vlox DNA recombination in HEK293 cells; conditions: 5 ng plasmid, TMP 10 nM or 500 nM or DMSO, 24 or 48 hours
Procedure: as §1, §2

## SPEED-Cas9: split spCas9 (a.a. 2-713 and 714-1,368) tagged with NZ/CZ leucine zippers and DD sequences, joined via P2A; SEQ ID No: 28
[1]; 12.5 ng plasmid, DMSO, 48 hours
  background endonuclease activity in the absence of TMP: extremely low background level of endonuclease activity, comparable to that of the negative control group using the pcDNA3.1 empty vector plasmid
[1]; 12.5 ng plasmid, TMP 500 nM, 48 hours
  TMP-dependent endonuclease activity: extremely high TMP-dependent endonuclease activity
[1]; TMP 500 nM (FIGS. 9d and e)
  TMP-dependent endonuclease activity compared with full-length Cas9: comparable to that of full-length Cas9

B1: DD-Flp: Flp tagged with single DD; SEQ ID No: 15 (protein, listed as Saccharomyces cerevisiae)
chain: MVSKYPYDVPDYARSGGSGGMISLIAALAVDYVIGMENAMPWNLPADLAWFKRNTLNKPVIMGRHTWESIGRPLPGRKNIILSSQPSTDDRVTWVKSVDEAIAACGDVPEIMVIGGGRVIEQFLPKAQKLYLTHIDAEVEGDTHFPDYEPDDWESVFSEFHDADAQNSHSYCFEILERRGGSGGSGGKLVPKKKRKVGGSQFDILCKTPPKVLVRQFVERFERPSGEKIASCAAELTYLCWMITHNGTAIKRATFMSYNTIISNSLSFDIVNKSLQFKYKTQKATILEASLKKLIPAWEFTIIPYNGQKHQSDITDIVSSLQLQFESSEEADKGNSHSKKMLKALLSEGESIWEITEKILNSFEYTSRFTKTKTLYQFLFLATFINCGRFSDIKNVDPKSFKLVQNKYLGVIIQCLVTETKTSVSRHIYFFSARGRIDPLVYLDEFLRNSEPVLKRVNRTGNSSSNKQEYQLLKDNLVRSYNKALKKNAPYPIFAIKNGPKSHIGRHLMTSFLSMKGLTELTNVVGNWSDKRASAVARTTYTHQITAIPDHYFALVSRYYAYDPISKEMIALKDETNPIEEWQHIEQLKGSAEGSIRYPAWNGIISQEVLDYLSSYINRRI
modifications: MISC_FEATURE - HAtag; DOMAIN 21..179 Degradation Domain; MISC_FEATURE - Flp
[2]
  background DNA recombination activity in the absence of TMP: high background DNA recombination activity comparable to full-length Flp

B2: SPEED-VCre: split VCre (a.a. 2-277 and 278-380), single DD on the N-terminal and C-terminal sides; SEQ ID No: 20 (protein, listed as Vibrio parahaemolyticus)
chain: MVSKYPYDVPDYARSGGSGGMISLIAALAVDYVIGMENAMPWNLPADLAWFKRNTLNKPVIMGRHTWESIGRPLPGRKNIILSSQPSTDDRVTWVKSVDEAIAACGDVPEIMVIGGGRVIEQFLPKAQKLYLTHIDAEVEGDTHFPDYEPDDWESVFSEFHDADAQNSHSYCFEILERRGGSGGSGGKLVPKKKRKVGGIENQLSLLGDFSGVRPDDVKTAIQAAQKKGINVAENEQFKAAFEHLLNEFKKREERYSPNTLRRLESAWTCFVDWCLANHRHSLPATPDTVEAFFIERAEELHRNTLSVYRWAISRVHRVAGCPDPCLDIYVEDRLKAIARKKVREGEAVKQASPFNEQHLLKLTSLWYRSDKLLLRRNLALLAVAYESMLRASELANIRVSDMELAGDGTAILTIPITKTNHSGEPDTCILSQDVVSLLMDYTEAGKLDMSSDGFLFVGVSKHNTCIKPKKDKQTGSGSGATNFSLLKQAGDVEENPGPLEGEVLHKPITTKTVEGVFYSAWETLDLGRQGVKPFTAHSARVGAAQDLLKKGYNTLQIQQSGRWSSGAMVARYGRAILARDGAMAHSRVKTRSAPMQWGKDEKDGGSGGSGGMISLIAALAVDYVIGMENAMPWNLPADLAWFKRNTLNKPVIMGRHTWESIGRPLPGRKNIILSSQPSTDDRVTWVKSVDEAIAACGDVPEIMVIGGGRVIEQFLPKAQKLYLTHIDAEVEGDTHFPDYEPDDWESVFSEFHDADAQNSHSYCFEILERR
modifications: HAtag; DOMAIN 21..179 Degradation Domain; SIGNAL 190..197 Nuclear Localization Signal; MISC_FEATURE - N-terminal side of VCre; MISC_FEATURE - P2A; MISC_FEATURE - C-terminal side of VCre; DOMAIN 613..771 Degradation Domain
[3]
  background and TMP-dependent DNA recombination activity: results similar to those of SPEED-Cre

B3: SPEED-Flp: split Flp (a.a. 2-374 and 375-423), single DD on the N-terminal and C-terminal sides; SEQ ID No: 16 (protein, listed as Saccharomyces cerevisiae)
chain: MVSKYPYDVPDYARSGGSGGMISLIAALAVDYVIGMENAMPWNLPADLAWFKRNTLNKPVIMGRHTWESIGRPLPGRKNIILSSQPSTDDRVTWVKSVDEAIAACGDVPEIMVIGGGRVIEQFLPKAQKLYLTHIDAEVEGDTHFPDYEPDDWESVFSEFHDADAQNSHSYCFEILERRGGSGGSGGKLVPKKKRKVGGSQFDILCKTPPKVLVRQFVERFERPSGEKIASCAAELTYLCWMITHNGTAIKRATFMSYNTIISNSLSFDIVNKSLQFKYKTQKATILEASLKKLIPAWEFTIIPYNGQKHQSDITDIVSSLQLQFESSEEADKGNSHSKKMLKALLSEGESIWEITEKILNSFEYTSRFTKTKTLYQFLFLATFINCGRFSDIKNVDPKSFKLVQNKYLGVIIQCLVTETKTSVSRHIYFFSARGRIDPLVYLDEFLRNSEPVLKRVNRTGNSSSNKQEYQLLKDNLVRSYNKALKKNAPYPIFAIKNGPKSHIGRHLMTSFLSMKGLTELTNVVGNWSDKRASAVARTTYTHQITAIPDHYFALVSRYYAYDPISKEMIALGSGSGATNFSLLKQAGDVEENPGPLEKDETNPIEEWQHIEQLKGSAEGSIRYPAWNGIISQEVLDYLSSYINRRIGGSGGSGGMISLIAALAVDYVIGMENAMPWNLPADLAWFKRNTLNKPVIMGRHTWESIGRPLPGRKNIILSSQPSTDDRVTWVKSVDEAIAACGDVPEIMVIGGGRVIEQFLPKAQKLYLTHIDAEVEGDTHFPDYEPDDWESVFSEFHDADAQNSHSYCFEILERR
modifications: MISC_FEATURE - HAtag; DOMAIN 21..179 Degradation Domain; SIGNAL 190..197 Nuclear Localization Signal; MISC_FEATURE - N-terminal side of Flp; MISC_FEATURE - P2A; MISC_FEATURE - C-terminal side of Flp; DOMAIN 656..814 Degradation Domain
[2]
  background DNA recombination activity in the absence of TMP: extremely low background level of DNA recombination activity comparable to a negative control group using the pcDNA3.1 empty vector plasmid
[2]; TMP 10 nM or 500 nM
  TMP-dependent DNA recombination activity: extremely high TMP-dependent DNA recombination activity
